The labels stand for the following.
B1: CD33/CD3 2×2 T-cell engager 08 (bispecific antibody)
chain: QSVLTQPPSASGTPGQRVTISCSGSRSNIGSNTVNWYQQLPGTAPKLLIYGNNQRPSGVPDRFSGSKSGTSASLAISGLQSEDEADYYCATWDDSLIGWVFGGGTKLTVLGGSGGSEVQLVESGGGLVQPGGSLRLSCAASGFTFSTYAMNWVRQAPGKGLEWVGRIRSKYNNYATYYADSVKDRFTISRDDSKNSLYLQMNSLKTEDTAVYYCARHGNFGNSYVSYFAYWGQGTLVTVSSGGSGGSDIQMTQSPSSLSASVGDRVTITCRSSTGAVTTSNYANWVQQKPGKAPKALIGGTNKRAPGVPSRFSGSLIGDKATLTISSLQPEDFATYYCALWYSNLWVFGQGTKVEIKGGSGGSQVQLVQSGAEVKKPGASVKVSCKASGYTFTSYDINWVRQAPGQGLEWMGWMNPNSGNTGFAQKFQGRVTMTRDTSTSTVYMELSSLRSEDTAVYYCARDRANTDFSYGMDVWGQGTLVTVSSAAAGSHHHHHH
notes: Non-covalent homodimer; also called 2×2 T-cell engager 8
B2: CD33/CD3 2×2 T-cell engager 10 (bispecific antibody)
chain: DIQMTQSPSSLSASVGDRVTITCRSSTGAVTTSNYANWVQQKPGKAPKGLIGGTNKRAPGVPSRFSGSLIGDKATLTISSLQPEDFATYYCALWYSNLWVFGQGTKVEIKGGSGGSQVQLVQSGAEVKKPGASVKVSCKASGYTFTSYDINWVRQAPGQGLEWMGWMNPNSGNTGFAQKFQGRVTMTRDTSTSTVYMELSSLRSEDTAVYYCARDRANTDYSFGMDVWGQGTLVTVSSGGSGQSVLTQPPSASGTPGQRVTISCSGSRSNIGSNTVNWYQQLPGTAPKLLIYGNNQRPSGVPDRFSGSKSGTSASLAISGLQSEDEADYYCATWDDSLIGWVFGGGTKLTVLGGSGGSEVQLVESGGGLVQPGGSLRLSCAASGFTFSTYAMNWVRQAPGKGLEWVGRIRSKYNNYATYYADSVKDRFTISRDDSKNSLYLQMNSLKTEDTAVYYCARHGNFGNSYVSWFAYWGQGTLVTVSSAAAGSHHHHHH
notes: Non-covalent homodimer
B3: CD33/CD3 2×2 T-cell engager 03 (bispecific antibody)
chain: B2 chain with S63A, L69G, I70S, D72T, K73D, A74F
notes: Non-covalent homodimer; also called 2×2 T-cell engager 3
B4: CD33/CD3 2×2 T-cell engager 02 (bispecific antibody)
chain: B2 chain with S63A, L69G, I70S, D72T, K73D, A74F, N218V, S222Y, F223Y
notes: Non-covalent homodimer; also called 2×2 T-cell engager 2
B5: CD33/CD3 2×2 T-cell engager 01 (bispecific antibody)
chain: B2 chain with S63A, L69G, I70S, D72T, K73D, A74F, Y221F, F223Y
notes: Non-covalent homodimer; also called 2×2 T-cell engager 1

The term Kd denotes the constant that tells how readily two partners part at equilibrium.

Where a chain is given by its changes, count along the chain named.

T2 sequence (P07766 23-207, chain 1 of 4): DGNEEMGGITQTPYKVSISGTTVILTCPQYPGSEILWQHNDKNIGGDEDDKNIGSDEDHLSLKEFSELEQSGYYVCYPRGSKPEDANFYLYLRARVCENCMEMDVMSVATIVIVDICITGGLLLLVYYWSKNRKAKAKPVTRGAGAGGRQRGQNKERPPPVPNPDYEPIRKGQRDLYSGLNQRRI
T2 sequence (P09693 23-182, chain 2 of 4): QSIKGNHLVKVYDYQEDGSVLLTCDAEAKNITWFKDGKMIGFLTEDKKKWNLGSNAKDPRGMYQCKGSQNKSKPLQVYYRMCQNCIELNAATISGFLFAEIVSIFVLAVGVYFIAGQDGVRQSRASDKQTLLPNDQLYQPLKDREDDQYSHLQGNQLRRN
T2 sequence (P04234 22-171, chain 3 of 4): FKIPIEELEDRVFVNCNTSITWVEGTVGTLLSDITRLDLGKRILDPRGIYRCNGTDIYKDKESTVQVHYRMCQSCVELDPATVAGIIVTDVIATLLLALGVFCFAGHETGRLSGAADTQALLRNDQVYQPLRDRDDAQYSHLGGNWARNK
T2 sequence (P20963 22-164, chain 4 of 4): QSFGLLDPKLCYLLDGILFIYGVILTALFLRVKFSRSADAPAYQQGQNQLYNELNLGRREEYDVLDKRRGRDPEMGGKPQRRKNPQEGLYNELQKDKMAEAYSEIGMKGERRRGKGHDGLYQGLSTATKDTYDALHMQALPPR
T1 sequence (P20138 18-364): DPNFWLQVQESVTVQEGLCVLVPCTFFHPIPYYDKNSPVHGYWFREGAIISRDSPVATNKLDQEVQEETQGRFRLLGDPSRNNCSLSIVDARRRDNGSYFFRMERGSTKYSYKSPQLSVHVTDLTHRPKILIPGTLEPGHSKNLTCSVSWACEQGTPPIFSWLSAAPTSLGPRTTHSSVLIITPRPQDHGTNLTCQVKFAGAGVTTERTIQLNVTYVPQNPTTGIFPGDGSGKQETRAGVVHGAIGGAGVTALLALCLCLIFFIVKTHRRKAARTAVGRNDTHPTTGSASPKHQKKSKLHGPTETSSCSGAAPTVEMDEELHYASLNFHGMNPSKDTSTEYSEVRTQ

One experiment has as its target T1, human CD33 (human, UniProt P20138 18-364).
T1 construct: whole, on cells; also called huCD33; CD33 on HL-60, KG-1, KG-1a, U-937 cells
Description: flow cytometry titration, U-937 cells. As to the method: (§1) Cells were incubated with 100 μL of serial dilutions of CD33/CD3 2×2 T-cell engagers. After washing three times with FACS buffer the cells were incubated with 0.1 mL of 10 μg/mL mouse monoclonal anti-His antibody in the same buffer for 45 min on ice. After a second washing cycle, the cells were incubated with 0.1 mL of 15 μg/mL FITC-conjugated goat anti-mouse IgG antibodies under the same conditions as before. As a control, cells were incubated with the anti-His IgG followed by the FITC-conjugated goat anti-mouse IgG antibodies without anti-CD33 2×2 T-cell engagers. The cells were then washed again and resuspended in 0.2 mL of FACS buffer containing 2 μg/mL propidium iodide (PI) in order to exclude dead cells. The fluorescence of 1×10⁴ living cells was measured using a Beckman-Coulter FC500 MPL flow cytometer using the MXP software (Beckman-Coulter, Krefeld, Germany) or a Millipore Guava EasyCyte flow cytometer using the Incyte software (Merck Millipore, Schwalbach, Germany). Mean fluorescence intensities of the cell samples were calculated using CXP software (Beckman-Coulter, Krefeld, Germany) or Incyte software (Merck Millipore, Schwalbach, Germany). After subtracting the fluorescence intensity values of the cells stained with the secondary and tertiary reagents alone the values were used for calculation of the KD values with the equation for one-site binding (hyperbola) of the GraphPad Prism (version 6.00 for Windows, GraphPad Software, La Jolla Calif. USA). […]
For orientation: Flow cytometry measures light scatter and fluorescence of single cells or particles in a stream.
Turning to B1, binding was characterised by a dissociation constant (Kd) of 1800 pM. This counts as single-digit nanomolar.
In turn, B2 gave a Kd of 1700 pM. The Kd values of the last two molecules are within 1.5-fold of each other.
In the case of B3, binding was characterised by a dissociation constant (Kd) of 8900 pM.
B4: the Kd worked out at 900 pM.
B5: the affinity, expressed as Kd, was 7100 pM.

The target in a further experiment is T1, human CD33. The experiment in a line: flow cytometry titration, HL-60 cells. As to the method:
as §1
Take B1: the affinity, expressed as Kd, was 300 pM. That is a sub-nanomolar value.
As for B2, binding was put at a Kd of 500 pM.
Consider B3, for which the Kd is 1100 pM.
B4 displayed an equilibrium dissociation constant (Kd) of 200 pM.
As for B5, binding was characterised by a dissociation constant (Kd) of 600 pM.

The target in the next experiment is T1, human CD33. Description: cell-based or functional assay.
Consider B1, for which the “EC50 on HL-60 (cytotoxicity)” value came to 1.8 pM.
As to B2, the “EC50 on HL-60 (cytotoxicity)” value came to 7 pM.
For B3, the “EC50 on HL-60 (cytotoxicity)” value amounted to 3.6 pM.
For the molecule B4, the “EC50 on HL-60 (cytotoxicity)” value is 0.5 pM.
As to B5, the “EC50 on HL-60 (cytotoxicity)” value turned out to be 1.9 pM.

The next experiment concerns the target T2, human CD3 (human, UniProt P07766 23-207; P09693 23-182; P04234 22-171; P20963 22-164).
T2 construct: whole, on cells; the description names the epsilon chain only 'in certain instances'; also called hu CD3; CD3 on T cells
Description: flow cytometry titration, T cells (human CD3+).
As for B1, binding was put at a Kd of 2400 pM.
Still for that read-out and setting: the same measure for B2: 1900 pM; for B3: 81900 pM; for B4: 69800 pM.
Regarding B5, the affinity, expressed as Kd, was 94200 pM.

A further experiment has as its target T2, human CD3. The experiment in a line: flow cytometry, human T-cells.
B2 displayed a dissociation constant Kd of 1900 pM.
In the case of B3, binding was characterised by a dissociation constant (Kd) of 81900 pM. This Kd lies about 43-fold higher than the previous one.
Same read-out and setting: as for B4, the figure is 69800 pM; as for B5, 94200 pM.

The target of the next experiment is T2, human CD3. Description: cell-based or functional assay.
Turning to B2, the “CD25 Induction EC50” value came to 10 pM, the “CD69 Induction EC50” value turned out to be 6 pM and the “T cell Proliferation in PBMC EC50” value was 6 pM.
As for B3, the “CD25 Induction EC50” value worked out at 117 pM, the “CD69 Induction EC50” value came out at 87 pM and the “T cell Proliferation in PBMC EC50” value was found to be 63 pM.
As to B4, the “CD25 Induction EC50” value was found to be 42 pM, the “CD69 Induction EC50” value was determined as 27 pM and the “T cell Proliferation in PBMC EC50” value was 4 pM.
With B5, the “CD25 Induction EC50” value turned out to be 92 pM, the “CD69 Induction EC50” value was 91 pM and the “T cell Proliferation in PBMC EC50” value came to 89 pM.

The next experiment deals with T1, human CD33. The experiment in a line: flow cytometry titration, KG-1 cells. As to the method: as §1
Molecule B1 gave a dissociation constant (Kd) of 500 pM.
Molecule B2 returned a dissociation constant Kd of 1000 pM. This Kd lies about 2-fold higher than the previous one.
On to B3, for which the dissociation constant (Kd) was 1800 pM.
As to B4, the Kd was found to be 300 pM.
Still for that read-out and setting: the same measure for B5: 900 pM.

Another experiment deals with T1, human CD33. The experiment in a line: flow cytometry, HL-60 cells.
For B2, the Kd came to 500 pM. In other words, the sub-nanomolar range.
With B3, the Kd came out at 1100 pM. This Kd is about 2.2-fold higher than that of the molecule before.
B4 had a Kd of 200 pM.
On to B5, for which the Kd was 600 pM. This Kd is about 3-fold higher than that of the molecule before.
